{"source": "patent US9802942B2", "about": "“Substituted 4-methyl-pyrrolo[1,2-A]pyrimidine-8-carboxamide compounds and uses thereof for modulating glucocerebrosidase activity” (Northwestern University, priority 2015, dated 2017)", "molecules": {"B1": {"name": "activated GCase: recombinant wild type GCase covalent modified by probe 4 (NHS ester) on lysine residues, 1-3 ligands (conjugate, UniProt P04062 40-536, looked up)", "Lysosomal acid …": "ARPCIPKSFGYSSVVCVCNATYCDSFDPPTFPALGTFSRYESTRSGRRMELSMGPIQANHTGTGLLLTLQPEQKFQKVKGFGGAMTDAAALNILALSPPAQNLLLKSYFSEEGIGYNIIRVPMASCDFSIRTYTYADTPDDFQLHNFSLPEEDTKLKIPLIHRALQLAQRPVSLLASPWTSPTWLKTNGAVNGKGSLKGQPGDIYHQTWARYFVKFLDAYAEHKLQFWAVTAENEPSAGLLSGYPFQCLGFTPEHQRDFIARDLGPTLANSTHHNVRLLMLDDQRLLLPHWAKVVLTDPEAAKYVHGIAVHWYLDFLAPAKATLGETHRLFPNTMLFASEACVGSKFWEQSVRLGSWDRGMQYSHSIITNLLYHVVGWTDWNLALNPEGGPNWVRNFVDSPIIVDITKDTFYKQPMFYHLGHFSKFIPEGSQRVGLVASQKNDLDAVALMHPDGSAVVVVLNRSSKDVPLTIKDPAVGFLETISPGYSIHTYLWRRQ", "modifications": "covalent probe 4 on lysines", "notes": "recombinant wild type GCase covalent modified by probe 4 (NHS ester) on lysine residues, 1-3 ligands"}}, "key": {"GCase": {"molecular_target": "T1, GCase (Homo sapiens, UniProt P04062)", "T1 construct": "purchased Shire Human Genetic Therapies, Inc. Vpriv", "T1 sequence (P04062 40-536)": "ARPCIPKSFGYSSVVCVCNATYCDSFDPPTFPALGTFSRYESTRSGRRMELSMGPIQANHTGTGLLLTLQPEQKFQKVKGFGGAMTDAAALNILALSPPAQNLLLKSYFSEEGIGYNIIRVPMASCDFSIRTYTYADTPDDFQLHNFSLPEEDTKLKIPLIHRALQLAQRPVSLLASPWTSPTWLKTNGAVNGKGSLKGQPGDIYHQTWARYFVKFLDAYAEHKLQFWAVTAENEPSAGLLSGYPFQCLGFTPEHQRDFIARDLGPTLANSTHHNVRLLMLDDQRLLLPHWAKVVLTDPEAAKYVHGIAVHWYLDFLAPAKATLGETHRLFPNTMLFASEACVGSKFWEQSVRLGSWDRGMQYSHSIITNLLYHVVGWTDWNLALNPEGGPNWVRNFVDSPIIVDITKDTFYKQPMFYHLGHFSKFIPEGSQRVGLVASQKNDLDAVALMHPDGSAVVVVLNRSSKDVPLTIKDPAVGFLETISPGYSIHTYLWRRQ", "test": "Fluorescence polarization (FP) assay, probe titrated with enzyme", "type": "binding", "settings": "probe 50 nM, enzyme 5 nM to 10 μM", "experimental": "The fluorescent probe 3 (25 nL/well, 50 nM final concentration) was transferred to a 384-well black plate using a Labcyte Echo 550 Liquid Handler system. The 25 μL/well enzyme dilutions with GCase enzyme activity buffer were added to the plate, which was shaken at room temperature in dark for 20 min. The final titration was 5 nM to 10 μM, 10 concentrations, 2 times dilution. The fluorescence polarization was measured in Molecular Devices Analyst GT with Ex=535 nm and Em=580 nm, G Factor=1.05.\nThe fluorescent probe 3 (25 nL/well, 50 nM final concentration) was transferred to a 384-wells black plate by using Labcyte Echo 550 Liquid Handler system. The 25 μL/well enzyme dilutions in GCase enzyme activity buffer (the final titration was 5 nM to 10 μM, 10 concentrations, 2 times dilution) were added to the plate, and shook at room temperature in dark for 20 min. The fluorescence polarization was measured in Molecular Devices Analyst GT with Ex=535 nm and Em=580 nm, G Factor=1.05."}, "[1]": {"molecular_target": "T2, recombinant wild type GCase (Homo sapiens, UniProt P04062)", "T2 construct": "purchased Shire Human Genetic Therapies, Inc. Vpriv", "T2 sequence (P04062 40-536)": "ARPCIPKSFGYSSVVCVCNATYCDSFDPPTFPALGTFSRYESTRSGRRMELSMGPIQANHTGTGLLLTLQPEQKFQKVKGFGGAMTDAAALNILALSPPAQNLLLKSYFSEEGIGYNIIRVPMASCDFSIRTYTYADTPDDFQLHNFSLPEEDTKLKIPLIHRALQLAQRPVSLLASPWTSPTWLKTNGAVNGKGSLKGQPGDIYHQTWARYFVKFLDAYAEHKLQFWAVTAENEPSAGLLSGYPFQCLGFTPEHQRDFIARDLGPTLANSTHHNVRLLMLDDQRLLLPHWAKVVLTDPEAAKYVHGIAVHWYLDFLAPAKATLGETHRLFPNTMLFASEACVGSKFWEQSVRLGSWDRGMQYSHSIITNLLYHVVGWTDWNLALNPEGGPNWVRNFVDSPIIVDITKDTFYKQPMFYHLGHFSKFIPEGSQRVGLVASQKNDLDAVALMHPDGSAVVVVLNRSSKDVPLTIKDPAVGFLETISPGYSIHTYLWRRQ", "test": "Covalent binding assay: activity of GCase activated by probe 4", "type": "biochemical", "settings": "natural substrate assay; covalent activation", "experimental": "To the recombinant wild type enzyme (22 μM, 95 μL, 1 equiv) in 0.1 M phosphate buffer (pH 7.2) was added 2,5-dioxopyrrolidin-1-yl 3-(2-(2-(4-(4-(2,4-dimethylpyrrolo[1,2-a]pyrimidine-8-carboxamido)phenyl)-1H-1,2,3-triazol-1-yl)ethoxy)ethoxy)propanoate (4) in DMSO (0.89 mM, 5 μL, 2 equiv) in one portion, and was vortexed for 5 sec immediately. At indicated time points, the reaction solution (2 μL) was sampled and diluted (1:3125 dilution) into the assay buffer (50 mM citric acid, 176 mM K2HPO4, and 0.01% Tween-20 at pH 5.9). After 2 h the reaction solution was dialyzed three times with 0.1 M phosphate buffer (pH 7.2). The enzyme was adjusted to the same concentration and sampled for activity. The dilution solutions were assayed with three substrates, resorufin substrate, 4-MU substrate, and natural substrate using the method in Example 5 and Example 6 without adding compounds.\nThe probe 4 was subjected to the covalent binding assay against GCase. The reaction conditions, including the buffer pH value, the concentration of the protein and probe, and the reaction temperature were carefully adjusted to achieve the maximum activation. With the optimized reaction condition, the enzyme activity was activated in a time-dependent manner (FIG. 5). The enzyme could be activated by probe 4 with around 22 and 28 folds activity comparing to the wt. GCase in the 4MU-Glc substrate (FIG. 5A) and red substrate (FIG. 5B) enzyme activity assay respectively."}, "U937 macrophage cells": {"tested_on": "U937 macrophage cells", "test": "U937 macrophage uptake assay", "type": "cell-based, human", "experimental": "Human monocyte cell line U937 was optimally differentiated into macrophages by the addition of 75 ng/ml PMA (Brumshtein, Salinas et al. 2010) to the monocyte culture for 3 days (in 75 cm^2 flasks). Macrophages were enriched by adhesion to the culture plate and identified by morphology and receptor staining.\nThe assay was carried out according to the reported method (Tekoah, Tzaban et al. 2013) with slight modification. The enzyme was treated with compound 4 or DMSO at pH 7.2 for 60 min as described above, then dialyzed with PBS. U937 cells, after differentiation (˜1.6*10^6 cells), were incubated with 60 μg/ml of the activated enzymes and wt. enzyme in F12K medium for 10 min at 5% CO2, 37° C. incubator. The cells were then washed twice with ice cold PBS enriched with Mannan (1 mg/ml). To further ensure release of any proteins bound non-specifically to the membrane half of the cells were washed with ice cold glycine buffer: (0.8% NaCl, 0.038% KCl, 0.01% MgCl2, 0.01% CaCl2, 0.7% glycine [pH 3]) followed by two additional cold PBS washes. The other half of the wells were used as controls for measuring total enzymatic activity (bound and internalized enzyme). The cells were lysed by adding β-glucocerebrosidase activity buffer (60 mM phosphate-citrate buffer; 0.15% Triton X-100; 0.125% sodium taurocholate, pH 5.5), followed by pipetting and one freeze/thaw cycle. The obtained lysates were subjected to determination of enzymatic activity using the colorimetric method detailed above. The total enzymatic activity was normalized to total soluble proteins as measured by Bradford assay. The effective uptake was calculated as the percentage of activity within the cells out of the total enzymatic activity of the controls."}, "[2]": {"test": "Enzyme stability assay in pH 4.7 buffer", "type": "physicochemical", "settings": "citrate/phosphate buffer pH 4.7, day 10", "description": "To test whether probe 4 changed the enzyme stability of GCase, we used two environments for GCase activity stability assay (Tekoah, Tzaban et al. 2013). The first one was citrate/phosphorylate buffer, which was at pH 4.7. In this condition, the wt. GCase only had about 15% activity left on day 4 (FIGS. 6A and 6B), which is similar to the previous research (Tekoah, Tzaban et al. 2013). An interesting finding was that even on day 10, activated GCase still had more than 20% activity left. […] One possible reason for the higher enzyme activity in low pH buffer was that activated GCase was stabilized by the covalent compound, and was more difficult to unfold."}}, "note": "Values joined by “and” are separate entries in the source; they are usually repeats but may differ in a detail not shown here. Equal entries are not always repeated."}
{"molecule": "Cc1cc(C)n2ccc(C(=O)Nc3ccc(-c4cn(CCOCCOCCNC(=O)c5ccc(-c6c7ccc(=[N+](C)C)cc-7oc7cc(N(C)C)ccc67)c(C(=O)[O-])c5)nn4)cc3)c2n1", "note": "[No. 4, 2-(3,6-Bis(dimethylamino)xanthylium-9-yl)-5-((2-(2-(2-(4-(4-(2,4-dimethylpyrrolo[1,2-a]pyrimidine-8-carboxamido)phenyl)-1H-1,2,3-triazol-1-yl)ethoxy)ethoxy)ethyl)carbamoyl)benzoate]", "values": [{"measurement": "Kd", "setting": "GCase", "value": "710 nM and ~710 nM"}]}
{"molecule": "B1", "values": [{"measurement": "activity improvement", "setting": "[1]", "value": 16, "unit": "folds"}, {"measurement": "activity compared to endogenous GC", "setting": "U937 macrophage cells; PMA-induced U937 cells, 4MU-β-glc substrate", "value": "more than 25 folds"}, {"measurement": "protein uptake level", "setting": "U937 macrophage cells; Western blot, activated GCase vs wt. GCase, in words", "value": "equal"}, {"measurement": "activity left", "setting": "[2]", "value": "more than 20%"}]}
